Biological target: T1, FKBP-NFAST (UniProt P62942 2-108)
T1 construct: Expressed in HEK293T cells; also called cmyc-FKBP-linker-NFAST; pAG149; not shown: c-myc tag
Test: split-FAST fluorescence complementation, confocal imaging of HEK293T cells, 100 nM rapamycin, HMBR or HBR-3,5DOM
Method: FIG. 5A-B show HEK293T cells co-expressing FKBP-NFAST and FRB-CFASTn (n=10 or 11) which were labeled with 5 μM HMBR (FIG. 5A) or 10 μM HBR-3,5DOM (FIG. 5B) and imaged before and after addition of 100 nM rapamycin. Scale bars 10 μm. […] Cells expressing FAST were used as control. HMBR concentration was 10 μM. Excitation at 488 nm at 6.3 kW/cm2. Six cells were analyzed per condition. […] Scale bars 20 μm. […] Scale bars 20 μm.

T1 sequence (P62942 other isoform, or with tags, fused parts or gaps): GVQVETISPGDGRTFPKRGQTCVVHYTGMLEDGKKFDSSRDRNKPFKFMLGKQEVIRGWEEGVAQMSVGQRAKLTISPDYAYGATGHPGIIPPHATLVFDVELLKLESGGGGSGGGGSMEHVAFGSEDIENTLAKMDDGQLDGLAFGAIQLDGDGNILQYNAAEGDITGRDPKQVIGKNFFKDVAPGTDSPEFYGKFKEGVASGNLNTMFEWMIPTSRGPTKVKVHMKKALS

Binder | binding result
FRB-CFAST11 (other, Expressed in HEK293T cells; also called cmyc-FRB-linker-CFAST(115-125); pAG152; not shown: c-myc tag) ILWHEMWHEGLEEASRLYFGERNVKGMFEVLEPLHAMMERGPQTLKETSFNQAYGRDLMEAQEWCRKYMKSGNVKDLTQAWDLYYHVFRRISKSGGGGSGGGGSGDSYWVFVKRV | binds
FRB-CFAST10 (other, also called FRB-CFASTn (n=10)) ILWHEMWHEGLEEASRLYFGERNVKGMFEVLEPLHAMMERGPQTLKETSFNQAYGRDLMEAQEWCRKYMKSGNVKDLTQAWDLYYHVFRRISKSGGGGSGGGGSGDSYWVFVKR | binds

From patent US20220169682A1 (PARIS SCIENCES ET LETTRES, published 2022)
